Target: human nucleophosmin (NPM; B23) (human) (UniProt P06748)
Assay: Scatchard analysis, increasing amounts of 125I-labelled antibody on intact cells (cell line not stated)

Sequence of UniProt P06748 (P06748 whole entry): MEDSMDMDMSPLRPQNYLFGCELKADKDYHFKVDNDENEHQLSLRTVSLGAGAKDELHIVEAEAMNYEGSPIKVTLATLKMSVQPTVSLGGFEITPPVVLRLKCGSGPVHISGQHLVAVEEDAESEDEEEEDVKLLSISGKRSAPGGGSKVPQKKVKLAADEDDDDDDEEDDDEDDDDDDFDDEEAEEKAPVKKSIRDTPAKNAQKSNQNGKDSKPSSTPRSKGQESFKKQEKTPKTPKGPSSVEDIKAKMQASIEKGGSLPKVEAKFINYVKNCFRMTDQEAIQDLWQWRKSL

## mouse monoclonal anti-nucleophosmin antibody (Zymed Laboratories, catalog no. 32-5200)
  Kd: 8.2 nM

Source: patent US20050009119A1
